The subject of this data set is O=c1[nH]c(=O)c2[nH]cnc2[nH]1. Description: cells, lysate or membranes. As to conditions: labelled compound.

For the substance UapA (Aspergillus nidulans FGSC A4), the Km is given as 6 ± 2 µM.

(Values after paper doi:10.1101/2021.09.27.461913v1.)
